What all share (conditions): glycan lost; control: wild type
A short description of data set [1]: selective uptake of [3H]COE from HDL.
Data set [2] can be described thus: cholesterol oxidase sensitivity, cholestenone by TLC.
Data set [3] in a line: [3H]cholesterol release from cells to HDL.
Data set [4] can be described thus: cell surface biotinylation, immunoblot densitometry.
A short description of data set [5]: flow cytometry, extracellular-domain antibody.

The values below come from PMC3448639.

B1: SR-BI (scavenger receptor class B type I; CLA-1): T175A (protein)
parent chain: MGCSAKARWAAGALGVAGLLCAVLGAVMIVMVPSLIKQQVLKNVRIDPSSLSFNMWKEIPIPFYLSVYFFDVMNPSEILKGEKPQVRERGPYVYREFRHKSNITFNNNDTVSFLEYRTFQFQPSKSHGSESDYIVMPNILVLGAAVMMENKPMTLKLIMTLAFTTLGERAFMNRTVGEIMWGYKDPLVNLINKYFPGMFPFKDKFGLFAELNNSDSGLFTVFTGVQNISRIHLVDKWNGLSKVDFWHSDQCNMINGTSGQMWPPFMTPESSLEFYSPEACRSMKLMYKESGVFEGIPTYRFVAPKTLFANGSIYPPNEGFCPCLESGIQNVSTCRFSAPLFLSHPHFLNADPVLAEAVTGLHPNQEAHSLFLDIHPVTGIPMNCSVKLQLSLYMKSVAGIGQTGKIEPVVLPLLWFAESGAMEGETLHTFYTQLVLMPKVMHYAQYVLLALGCVLLLVPVICQIRSQVGAGQRAARADSHSLACWGKGASDRTLWPTAAWSPPPAAVLRLCRSGSGHCWGLRSTLASFACRVATTLPVLEGLGPSLGGGTGS
Consider B1, for which the “other: transport activity” value in data set [1] is reported as “decreases”. For the same protein, in data set [2], the “other: plasma membrane free cholesterol redistribution” value is “decreases”. Further, the “other: free cholesterol efflux” value in data set [3] was “decreases”. Also, the “localisation_or_trafficking, percent_of_wt” value in data set [4] is “decreases, more than 50% less vs 100”. Also, the localisation_or_trafficking result in data set [5] is listed as “decreases”.
